Experimental data as given in IntAct's records for PubMed 35512704.

B1: Mothers against decapentaplegic homolog 4 (Homo sapiens), Q13485 (parent)
chain: MDNMSITNTPTSNDACLSIVHSLMCHRQGGESETFAKRAIESLVKKLKEKKDELDSLITAITTNGAHPSKCVTIQRTLDGRLQVAGRKGFPHVIYARLWRWPDLHKNELKHVKYCQYAFDLKCDSVCVNPYHYERVVSPGIDLSGLTLQSNAPSSMMVKDEYVHDFEGQPSLSTEGHSIQTIQHPPSNRASTETYSTPALLAPSESNATSTANFPNIPVASTSQPASILGGSHSEGLLQIASGPQPGQQQNGFTGQPATYHHNSTTTWTGSRTAPYTPNLPHHQNGHLQHHPPMPPHPGHYWPVHNELAFQPPISNHPAPEYWCSIAYFEMDVQVGETFKVPSSCPIVTVDGYVDPSGGDRFCLGQLSNVHRTEAIERARLHIGKGVQLECKGEGDVWVRCLSDHAVFVQSYYLDREAGRAPGDAVHKIYPSAYIKVFDLRQCHRQMQQQAATAQAAAAAQAAAVAGNIPGPGSVGGIAPAISLSAAAGIGVDDLRRLCILRMSFVKGWGPDYPRQSIKETPCWIEIHLHRALQLLDEVLHTMPIADPQPLD
partner: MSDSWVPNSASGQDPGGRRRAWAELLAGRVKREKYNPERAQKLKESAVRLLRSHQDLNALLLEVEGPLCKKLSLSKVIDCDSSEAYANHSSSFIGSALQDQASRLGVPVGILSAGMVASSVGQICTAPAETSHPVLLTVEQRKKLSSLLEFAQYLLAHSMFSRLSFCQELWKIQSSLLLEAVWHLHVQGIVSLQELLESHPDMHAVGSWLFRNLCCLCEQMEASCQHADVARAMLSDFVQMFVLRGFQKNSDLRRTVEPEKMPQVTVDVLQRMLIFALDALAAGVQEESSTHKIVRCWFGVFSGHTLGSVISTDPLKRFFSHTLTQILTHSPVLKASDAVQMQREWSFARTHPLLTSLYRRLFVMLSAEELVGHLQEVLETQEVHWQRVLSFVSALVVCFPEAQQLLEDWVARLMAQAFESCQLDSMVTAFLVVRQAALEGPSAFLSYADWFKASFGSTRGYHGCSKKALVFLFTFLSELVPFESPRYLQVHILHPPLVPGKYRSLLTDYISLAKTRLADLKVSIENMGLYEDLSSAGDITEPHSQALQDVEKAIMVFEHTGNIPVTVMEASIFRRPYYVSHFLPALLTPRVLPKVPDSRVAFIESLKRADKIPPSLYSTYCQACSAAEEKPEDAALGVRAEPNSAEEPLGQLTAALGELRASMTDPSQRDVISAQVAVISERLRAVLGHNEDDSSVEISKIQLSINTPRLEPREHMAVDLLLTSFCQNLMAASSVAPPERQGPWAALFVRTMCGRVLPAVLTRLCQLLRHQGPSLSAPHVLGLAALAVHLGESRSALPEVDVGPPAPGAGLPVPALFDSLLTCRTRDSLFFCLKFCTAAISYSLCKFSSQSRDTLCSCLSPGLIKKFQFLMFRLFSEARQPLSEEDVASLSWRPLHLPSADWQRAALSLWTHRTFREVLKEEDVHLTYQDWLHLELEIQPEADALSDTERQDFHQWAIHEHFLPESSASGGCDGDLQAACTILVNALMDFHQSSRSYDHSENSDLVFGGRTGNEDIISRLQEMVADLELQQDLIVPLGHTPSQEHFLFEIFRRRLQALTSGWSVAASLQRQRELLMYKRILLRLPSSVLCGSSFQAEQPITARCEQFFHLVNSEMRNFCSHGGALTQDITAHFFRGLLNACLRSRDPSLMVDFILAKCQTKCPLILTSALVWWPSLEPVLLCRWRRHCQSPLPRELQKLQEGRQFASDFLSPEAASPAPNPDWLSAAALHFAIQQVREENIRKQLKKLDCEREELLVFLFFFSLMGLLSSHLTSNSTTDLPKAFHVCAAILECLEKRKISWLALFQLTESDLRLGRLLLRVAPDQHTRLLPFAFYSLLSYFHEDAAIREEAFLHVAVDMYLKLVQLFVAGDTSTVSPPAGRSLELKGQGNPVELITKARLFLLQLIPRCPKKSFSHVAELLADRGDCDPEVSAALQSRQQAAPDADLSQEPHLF
B2: Mothers against decapentaplegic homolog 4 (Homo sapiens), Q13485 (parent)
chain: B1 chain
partner: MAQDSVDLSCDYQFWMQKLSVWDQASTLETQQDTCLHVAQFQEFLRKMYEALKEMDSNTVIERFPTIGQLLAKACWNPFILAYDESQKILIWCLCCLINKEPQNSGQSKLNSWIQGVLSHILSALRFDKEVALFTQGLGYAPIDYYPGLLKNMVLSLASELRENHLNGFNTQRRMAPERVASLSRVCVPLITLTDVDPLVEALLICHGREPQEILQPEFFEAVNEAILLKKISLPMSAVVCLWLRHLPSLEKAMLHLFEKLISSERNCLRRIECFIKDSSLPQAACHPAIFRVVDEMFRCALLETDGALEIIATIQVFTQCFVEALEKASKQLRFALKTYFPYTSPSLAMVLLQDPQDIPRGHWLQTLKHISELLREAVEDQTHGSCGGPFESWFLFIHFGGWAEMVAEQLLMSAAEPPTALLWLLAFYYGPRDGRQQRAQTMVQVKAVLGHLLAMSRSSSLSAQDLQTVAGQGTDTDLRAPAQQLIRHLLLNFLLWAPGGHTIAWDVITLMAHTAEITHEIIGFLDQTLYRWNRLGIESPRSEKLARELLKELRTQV
B3: Mothers against decapentaplegic homolog 4 (Homo sapiens), Q13485 (parent)
chain: B1 chain
partner: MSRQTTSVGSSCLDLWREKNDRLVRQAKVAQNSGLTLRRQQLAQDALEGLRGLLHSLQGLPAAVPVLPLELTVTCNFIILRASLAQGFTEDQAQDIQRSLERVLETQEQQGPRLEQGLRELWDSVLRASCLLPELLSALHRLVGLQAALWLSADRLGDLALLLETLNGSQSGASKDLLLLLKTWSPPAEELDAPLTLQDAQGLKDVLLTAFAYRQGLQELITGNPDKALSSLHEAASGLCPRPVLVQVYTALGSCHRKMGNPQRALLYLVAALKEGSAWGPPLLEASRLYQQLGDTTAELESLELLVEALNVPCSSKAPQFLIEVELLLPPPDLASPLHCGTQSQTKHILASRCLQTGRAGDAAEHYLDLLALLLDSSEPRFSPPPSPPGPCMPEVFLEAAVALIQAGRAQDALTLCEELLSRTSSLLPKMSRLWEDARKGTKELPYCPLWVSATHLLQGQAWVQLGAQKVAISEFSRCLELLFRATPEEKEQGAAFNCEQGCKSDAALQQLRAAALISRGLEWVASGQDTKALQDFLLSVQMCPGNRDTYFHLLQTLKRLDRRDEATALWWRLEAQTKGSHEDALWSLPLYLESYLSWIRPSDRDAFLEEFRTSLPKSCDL
B4: Mothers against decapentaplegic homolog 4 (Homo sapiens), Q13485 (parent)
chain: B1 chain
partner: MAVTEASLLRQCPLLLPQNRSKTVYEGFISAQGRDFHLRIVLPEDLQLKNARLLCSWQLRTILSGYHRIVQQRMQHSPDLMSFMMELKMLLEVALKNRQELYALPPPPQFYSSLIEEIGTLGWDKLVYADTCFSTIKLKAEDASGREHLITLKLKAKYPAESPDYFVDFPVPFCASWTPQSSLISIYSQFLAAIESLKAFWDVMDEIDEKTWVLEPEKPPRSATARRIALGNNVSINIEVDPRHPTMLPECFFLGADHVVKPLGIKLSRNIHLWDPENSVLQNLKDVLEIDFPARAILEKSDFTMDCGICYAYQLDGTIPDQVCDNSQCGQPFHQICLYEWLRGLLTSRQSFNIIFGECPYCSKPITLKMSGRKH
B5: Mothers against decapentaplegic homolog 4 (Homo sapiens), Q13485 (parent)
chain: B1 chain
partner: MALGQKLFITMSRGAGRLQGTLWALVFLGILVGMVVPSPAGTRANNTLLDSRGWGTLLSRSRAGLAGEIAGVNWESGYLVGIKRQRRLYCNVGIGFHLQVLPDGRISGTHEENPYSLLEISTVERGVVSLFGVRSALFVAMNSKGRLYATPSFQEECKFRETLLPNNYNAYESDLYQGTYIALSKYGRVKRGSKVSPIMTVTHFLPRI
B6: Mothers against decapentaplegic homolog 4 (Homo sapiens), Q13485 (parent)
chain: B1 chain
partner: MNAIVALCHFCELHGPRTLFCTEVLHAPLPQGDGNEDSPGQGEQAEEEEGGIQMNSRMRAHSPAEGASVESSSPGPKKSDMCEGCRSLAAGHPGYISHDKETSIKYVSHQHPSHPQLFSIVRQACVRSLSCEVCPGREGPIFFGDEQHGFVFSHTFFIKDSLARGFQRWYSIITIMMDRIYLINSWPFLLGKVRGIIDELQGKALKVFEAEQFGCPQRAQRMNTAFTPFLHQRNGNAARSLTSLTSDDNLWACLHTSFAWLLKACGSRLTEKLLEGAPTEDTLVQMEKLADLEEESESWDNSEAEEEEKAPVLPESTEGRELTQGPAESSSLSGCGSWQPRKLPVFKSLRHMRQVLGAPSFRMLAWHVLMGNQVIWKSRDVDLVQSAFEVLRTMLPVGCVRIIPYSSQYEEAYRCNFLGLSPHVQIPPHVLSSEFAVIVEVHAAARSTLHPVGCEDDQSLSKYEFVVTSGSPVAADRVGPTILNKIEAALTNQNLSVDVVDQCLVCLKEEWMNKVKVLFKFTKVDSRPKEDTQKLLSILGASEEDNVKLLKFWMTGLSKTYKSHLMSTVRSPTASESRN

Variants of: B1
Settings: with fanca_human FANCA

Row | Variant | effect of a mutation on the interaction
1 | G386D | with no effect

Variants of: B1
Settings: with fanca_human FANCA
Remark: another data set of the same source

Row | Variant | effect of a mutation on the interaction
2 | R361C | with no effect

Variants of: B1
Settings: with fanca_human FANCA
Remark: another data set of the same source

Row | Variant | effect of a mutation on the interaction
3 | R361H | with no effect

Variants of: B2
Settings: with fancc_human FANCC

Row | Variant | effect of a mutation on the interaction
4 | D351H | with no effect

Variants of: B2
Settings: with fancc_human FANCC
Remark: another data set of the same source

Row | Variant | effect of a mutation on the interaction
5 | G386D | with no effect

Variants of: B2
Settings: with fancc_human FANCC
Remark: another data set of the same source

Row | Variant | effect of a mutation on the interaction
6 | R361C | with no effect

Variants of: B2
Settings: with fancc_human FANCC
Remark: another data set of the same source

Row | Variant | effect of a mutation on the interaction
7 | R361H | with no effect

Variants of: B3
Settings: with fancg_human FANCG

Row | Variant | effect of a mutation on the interaction
8 | D351H | with no effect

Variants of: B3
Settings: with fancg_human FANCG
Remark: another data set of the same source

Row | Variant | effect of a mutation on the interaction
9 | G386D | with no effect

Variants of: B3
Settings: with fancg_human FANCG
Remark: another data set of the same source

Row | Variant | effect of a mutation on the interaction
10 | R361C | with no effect

Variants of: B3
Settings: with fancg_human FANCG
Remark: another data set of the same source

Row | Variant | effect of a mutation on the interaction
11 | R361H | with no effect

Variants of: B4
Settings: with fancl_human FANCL

Row | Variant | effect of a mutation on the interaction
12 | D351H | with no effect

Variants of: B4
Settings: with fancl_human FANCL
Remark: another data set of the same source

Row | Variant | effect of a mutation on the interaction
13 | G386D | with no effect

Variants of: B4
Settings: with fancl_human FANCL
Remark: another data set of the same source

Row | Variant | effect of a mutation on the interaction
14 | G386D | increasing interaction strength

Variants of: B4
Settings: with fancl_human FANCL
Remark: another data set of the same source

Row | Variant | effect of a mutation on the interaction
15 | R361C | with no effect

Variants of: B4
Settings: with fancl_human FANCL
Remark: another data set of the same source

Row | Variant | effect of a mutation on the interaction
16 | R361H | with no effect

Variants of: B5
Settings: with fgf6_human FGF6, P10767

Row | Variant | effect of a mutation on the interaction
17 | D351H | with no effect

Variants of: B5
Settings: with fgf6_human FGF6, P10767
Remark: another data set of the same source

Row | Variant | effect of a mutation on the interaction
18 | G386D | with no effect

Variants of: B5
Settings: with fgf6_human FGF6, P10767
Remark: another data set of the same source

Row | Variant | effect of a mutation on the interaction
19 | R361C | with no effect

Variants of: B5
Settings: with fgf6_human FGF6, P10767
Remark: another data set of the same source

Row | Variant | effect of a mutation on the interaction
20 | R361H | with no effect

Variants of: B6
Settings: with flcn_human FLCN

Row | Variant | effect of a mutation on the interaction
21 | D351H | with no effect

Variants of: B6
Settings: with flcn_human FLCN
Remark: another data set of the same source

Row | Variant | effect of a mutation on the interaction
22 | G386D | with no effect

Variants of: B6
Settings: with flcn_human FLCN
Remark: another data set of the same source

Row | Variant | effect of a mutation on the interaction
23 | R361C | with no effect
